Experimental data reported in patent publication US8143372B2, “Synthetic regulators of ferritin protein nanocage pores and methods of use thereof” (Children's Hospital & Research Center Oakland, priority 2007, dated 2012).
No end group written: not given here.

Molecular target: T1, recombinant, frog ferritin H protein nanocages (wild type) (Aquarana catesbeiana, UniProt P07229)
T1 construct: made in house
T1 sequence (P07229 1-176): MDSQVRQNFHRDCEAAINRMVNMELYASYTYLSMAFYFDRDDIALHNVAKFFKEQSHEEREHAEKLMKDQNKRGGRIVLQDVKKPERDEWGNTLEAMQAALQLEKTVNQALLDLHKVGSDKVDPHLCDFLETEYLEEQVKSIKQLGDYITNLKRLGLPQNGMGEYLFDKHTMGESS
Assay: Ferritin demineralization: formation of Fe2+-bipyridyl after adding NADH/FMN
Format: biochemical
Details: for Initial rate of Fe^2+ bipyridyl formation, pH = 7.0: 2.5 mM FMN, 2.5 mM NADH, 2.5 mM bipyridyl, absorbance 522 nm
From the text: The effect of the test agent on demineralization (e.g., on release of iron from ferritin) is generally carried out by contacting the test agent with ferritin in the presence of a reductant and an iron chelating agent such as bipyridyl or desferrioxamine. A suitable reductant comprises nicotinamide adenine dinucleotide reduced form (NADH) and flavin mononucleotide (FMN). The reductant reduces Fe(III) to Fe(II); and the iron chelating agent forms a complex with the Fe(II). Iron release from ferritin can be measured using any convenient method, including methods known in the art. The following is a non-limiting example of a suitable method. In this example, iron release from ferritin is measured by the formation of Fe(II)-bipyridyl. Iron release can be initiated by the addition of 2.5 mM bipyridyl, 2.5 mM FMN, and 2.5 mM NADH to ferritin in 0.1 M MOPS (pH 7.0) and 0.2 M NaCl. Formation of Fe(II)-bipyridyl is detected by measuring absorbance at 522 nm. See, e.g. Liu et al. (2003) Proc. Natl. Acad. Sci. USA 100:3653; and Takagi et al. (1998) J. Biol. Chem. 273:18685. Desferrioxamine can also be used as an iron chelator. See, e.g., Breuer et al. (2001) Blood 97:792.
The strategy used to identify molecules that would modulate ferritin protein nanocage pore function had two components: (i) searching a combinatorial peptide library for ferritin binding peptides, and (ii) analyzing the effect of reductants on the ferritin mineral inside the protein nanocages. Peptides were selected as the molecules of choice for pore alterations because of the selectivity of urea (1 mM) and guanidine (0.1 mM) in pore unfolding, observed previously. Liu and Theil (2003) Proc. Natl. Acad. Sci. U.S.A. 100:3653. Changes in ferritin protein nanocage pore gating can be analyzed as changes in the rate of ferritin iron demineralization, measured as formation of colored Fe chelates, when reductant (NADH/FMN) is added. Jones et al. (1978) Biochemistry 17:4011.
The peptides were mixed with wild type ferritin; demineralization was initiated by addition of NADH/FMN, and the appearance of Fe^2+-bipyridyl measured (FIG. 2). Three of the peptides (2, 3, and 5) had no effect on rates of formation of Fe^2+-bipyridyl, compared to wild type ferritin H protein nanocages, while Peptide 4 (Group B, eluted with ferritin H protein nanocages, after elution with ferritin H-L134P protein nanocages) decreased the rate 63%. Peptide 4 has 3 His and 1 Asp and could bind to charged residues around the pore. The peptide interaction with ferritin protein nanocage could interfere with unfolding and/or reductant access to the ferric mineral, or might induce conformational changes at the pore or elsewhere.
FIG. 2. Effect of binding peptides on removal of iron from the ferritin mineral. Demineralization of ferritin (recombinant, frog ferritin H protein nanocages; protein: 2.06 μM; Fe: 0.99 mM, MOPS: 100 mM, NaCl: 100 mM, pH 7.0) was initiated with reductant (final concentration: 2.5 mM FMN, 2.5 mM NADH), with bipyridyl (2.5 mM); formation of Fe^2+-bipyridyl was monitored at 522 nm. Initial reaction rates were calculated as described previously (Liu et al. (2003) Proc. Natl. Acad. Sci. USA 100:3653). Ferritin binding peptides, identified in a combinatorial, heptapeptide, phage-display library (1.3×10^9 members, New England Biolabs), were mixed with mineralized ferritin protein nanocages for one hour before initiating demineralization. Peptide 2 (Group A, eluted with H-L134P ferritin protein nanocage) and Peptides 3 and 5 (Group B, eluted with wild type ferritin protein nanocage), had no effect. The data are averages from triplicates in 2-5 independent experiments with two different protein preparations; the error is the standard deviation. […]

[1] = compared to wild type ferritin H protein nanocages without peptide

Substance: HSHHALDGSGG (SEQ ID NO:2) [Peptide 4]
- Initial rate of Fe^2+ bipyridyl formation, pH = 7.0 (H-wt ferritin + peptide): 0.41 ± 0.05 (mMol) × 10^3S^−1
- Decrease of the rate of formation of Fe^2+-bipyridyl [1]: 63%

Substance: HSNTYYFPKGG (SEQ ID NO:7) [Peptide 1]
- Initial rate of Fe^2+ bipyridyl formation, pH = 7.0 (H-wt ferritin + peptide): 6.80 ± 0.37 (mMol) × 10^3S^−1
- Rate Change with Temperature (Arrhenius equation) E‡ (Table 1, H-wt ferritin + peptide): 19.1 ± 0.621 kcal/mol
- E‡ in the Arrhenius plot (wild type ferritin complexed with peptide, FIG. 2B): 20.8 kcal/mol

Substance: GDWYLGD (SEQ ID NO:5) (GDWYLGDGG; not fully specified (N-terminus)) [Peptide 3, heptapeptide from the phage display library, synthesized as an undecapeptide with HS at the N-terminus and GG at the C-terminus]
- Effect on rates of formation of Fe^2+-bipyridyl [1]: no effect

Substance: SHTSPSI (SEQ ID NO:4) (SHTSPSIGG; not fully specified (N-terminus)) [Peptide 2, heptapeptide from the phage display library, synthesized as an undecapeptide with HS at the N-terminus and GG at the C-terminus]
- Effect on rates of formation of Fe^2+-bipyridyl [1]: no effect

Substance: HHALGGS (SEQ ID NO:6) (HHALGGSGG; not fully specified (N-terminus)) [Peptide 5, heptapeptide from the phage display library, synthesized as an undecapeptide with HS at the N-terminus and GG at the C-terminus]
- Effect on rates of formation of Fe^2+-bipyridyl [1]: no effect
